Source: US20200197547A1 (INSERM INSTITUT NATIONAL DE LA SANT ET DE LA RECHERCHE M …, published 2020)

Key:
[1] = target: T1, Mesothelin (MSLN) on MSLN-positive HCC70 human triple negative breast cancer cells (human, UniProt Q13421 296-598); assay: cell-based or functional assay
[2] = target: T2, Human MSLN recombinant protein (R&D systems) (human, UniProt Q13421 296-580, limits assumed); assay: saturation radioligand binding on plate-immobilized recombinant human MSLN
T2 construct: Bought protein, 100 ng immobilized on immunosorbent plates; also called recombinant MSLN; recombinant human mesothelin
T2 sequence (Q13421 other isoform, or with tags, fused parts or gaps limits assumed): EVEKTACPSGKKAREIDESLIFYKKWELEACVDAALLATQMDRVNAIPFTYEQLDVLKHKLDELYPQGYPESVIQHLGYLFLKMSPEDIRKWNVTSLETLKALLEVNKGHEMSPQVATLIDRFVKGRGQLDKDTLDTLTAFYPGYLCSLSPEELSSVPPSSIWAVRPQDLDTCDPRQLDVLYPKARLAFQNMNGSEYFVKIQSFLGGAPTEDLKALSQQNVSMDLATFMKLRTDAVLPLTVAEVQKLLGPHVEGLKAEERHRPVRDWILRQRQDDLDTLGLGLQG
Method: (§1) Human MSLN recombinant protein (100 ng, R&D systems) was immobilized on immunosorbent plates (Corning Costar Stripwell, Sigma Aldrich) overnight at 4° C., and blocked with 1% milk. Serial dilutions of ^99mTc-A1 and ^99mTc-C6 from 1 μM to 0.8 nM were incubated for 1 hour. Unbound activity was removed by 5 serial washes with PBS-Tween 0.1%. The radioactivity in each well was determined using a γ-counter (Wizard², Perkin Elmer). Unspecific binding was determined by incubation of ^99mTC-A1 or ^99mTc-C6 in empty wells. Results were corrected from background and decay, and the [^99mTc-A1] and [^99mTc-C6] binding curves were fitted using a nonlinear regression equation (specific binding: Y=B max*X/(KD+X) with X being the radioligand concentration) and using GraphPad Prism 6 software to determine KD values. Uptake was normalized to the Bmax for graphic representation of 3 independent experiments.

[3] = target: T1, Mesothelin (MSLN) on MSLN-positive …; assay: radioligand binding on cells in suspension, 40 nM 99mTc-A1, 1 h at 4 C, gamma counting
Method: (§2) HCC70 and MDA-MB-231 cells were rinsed with PBS, detached using EDTA 5 mM, and resuspended at 200,000 cells per tube. Cells were incubated for 1 hour with PBS-BSA 1% and then with 40 nM of ^99mTc-A1 or 150 nM of ^99mTc-C6 for 1 h at 4° C., in the absence or presence of a 200-fold excess of unlabeled A1 or C6. Cell suspensions were centrifuged at 400 g during 5 min at 4° C., and washed 5-times with cold-PBS. Cells were then transferred to new tubes and radioactivity was determined using a γ-counter (Wizard², Perkin).

[4] = target: T2, Human MSLN recombinant protein (R&D …); assay: saturation radioligand binding on plate-immobilized recombinant human MSLN, gamma counting, nonlinear fit
Method: as §1

[5] = target: T2, Human MSLN recombinant protein (R&D …); assay: saturation radioligand binding on recombinant human MSLN (as told in the discussion); value told in the discussion; recombinant human MSLN
Method: as §1

[6] = target: T1, Mesothelin (MSLN) on MSLN-positive …; assay: competition on HCC70 cells, 200-fold excess of unlabeled A1 against 40 nM 99mTc-A1 (competitor: 99mTc-A1)
Method: as §2

T1 sequence (Q13421 other isoform, or with tags, fused parts or gaps limits assumed): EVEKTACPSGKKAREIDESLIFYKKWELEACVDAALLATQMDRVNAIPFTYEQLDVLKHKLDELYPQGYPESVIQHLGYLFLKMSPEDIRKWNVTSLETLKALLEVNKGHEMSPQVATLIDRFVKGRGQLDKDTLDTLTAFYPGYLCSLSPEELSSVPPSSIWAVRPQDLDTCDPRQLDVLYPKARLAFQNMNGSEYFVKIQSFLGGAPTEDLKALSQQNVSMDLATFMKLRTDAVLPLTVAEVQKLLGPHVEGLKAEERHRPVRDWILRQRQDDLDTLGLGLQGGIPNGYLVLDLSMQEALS

| fold affinity against 99mTc-C6 [2] [fold] | Kd [4] [nM] | Kd [5] [nM] | Binder | 99mTc-A1 uptake in HCC70 tumors by SPECT quantification, with competition (150-fold excess of unlabeled A1) [1] [% ID/g] | fold decrease in 99mTc-A1 uptake in HCC70 tumors by SPECT quantification, co-injection of a 150-fold excess of unlabeled A1 [1] [fold] | fold decrease in 99mTc-A1 uptake in HCC70 tumors, ex vivo biodistribution, with excess of unlabeled A1 [1] [fold] | fold binding on HCC70 cells against MSLN-negative MDA-MB-231 cells [3] [fold] | fold decrease in 99mTc-A1 binding to HCC70 cells [6] [fold] |
| --- | --- | --- | --- | --- | --- | --- | --- | --- |
| > 2 | 43.9 | 35 | 99mTc-A1 (anti-mesothelin A1 single domain antibody radiolabeled with technetium-99m at its C-terminal hexahistidine tag) (VHH, 99mTc-tricarbonyl at the C-terminal hexahistidine-tag (His-Tag), Labeled by the tricarbonyl method; also called radiolabeled A1 nanobody) VHH: QVQLVQSGGGLVHPGGSLRLSCAASGIDLSLYRMRWYRQAPGKERDLVALITDDGTSYYEDSVKGRFTITRDNPSNKVFLQMNSLKPEDTAVYYCNAETPLSPVNYWGQGTQVTVSH | 0.6 | ~7 | ~7 | 7.9 | – |
| – | – | – | A1 anti-mesothelin single domain antibody, unlabeled (VHH, Same protein as in m1, without the radiolabel; also called unlabeled A1; A1 nanobody) VHH: QVQLVQSGGGLVHPGGSLRLSCAASGIDLSLYRMRWYRQAPGKERDLVALITDDGTSYYEDSVKGRFTITRDNPSNKVFLQMNSLKPEDTAVYYCNAETPLSPVNYWGQGTQVTVSH | – | – | – | – | 6 |
